Results as given in the supplement of paper PMC11196671.

Assays:
[1] = BHET released, HPLC; higher = more BHET released; extreme values may be limits of the assay; details: 24 h
Procedure: (§1)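 Purified PET hydrolases, 2.5 ug enzyme on 3.5 mg amorphous PET film (aFilm) or crystalline PET powder (cryPow) in 0.5 mL of 50 mM buffer (NaCitrate pH 4.5/5.5, NaPhosphate 6.5/7.5, glycine 8.5/9.5) at 60 or 70 C with shaking for 24 h. Total aromatic product by UV-Vis (260/280 nm, blank-subtracted, normalised per mg enzyme) and individual TPA, MHET, BHET concentrations by UHPLC-DAD at 240 nm; duplicate reactions.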

[2] = terephthalic acid (TPA) released, HPLC; higher = more TPA released; extreme values may be limits of the assay; details: 24 h
Procedure: as §1

[3] = PET hydrolysis product formed (TPA+MHET+BHET, UV-Vis) per mg enzyme (mmol/mg enzyme); higher = more PET depolymerisation activity; extreme values may be limits of the assay; details: 2 h
Procedure: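 Purified PET hydrolases (His-SUMO cleaved, E. coli C41(DE3) small-scale expression), 2.5 ug enzyme on 3.5 mg amorphous PET film (aFilm) or crystalline PET powder (cryPow) in 0.5 mL of 50 mM buffer (NaCitrate pH 4.5/5.5, NaPhosphate 6.5/7.5, glycine 8.5/9.5) at 60 or 70 C with shaking for 2 h. Soluble aromatic products (TPA+MHET+BHET) were quantified by UV-Vis at 260/280 nm, blank-subtracted against the no-enzyme control, and normalised per mg enzyme; duplicate reactions.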

[4] = as above; details: 24 h
Procedure: as §1

ANPYERGPNPTDALLEARSGPFSVSEENVSRLSASGFGGGTIYYPRENNTYGAVAISPGYTGTEASIAWLGERIASHGFVVITIDTITTLDQPDSRAEQLNAALNHMINRASSTVRSRIDSSRLAVMGHSMGGGGSLRLASQRPDLKAAIPLTPWHLNKNWSSVTVPTLIIGADLDTIAPVATHAKPFYNSLPSSISKAYLELDGATHFAPNIPNKIIGKYSVAWLKRFVDNDTRYTQFLCPGPRDGLFGEVEEYRSTCPF [TfCut2]
Details	BHET released, [1] [mM]	PET hydrolysis product formed, [3]	PET hydrolysis product formed, [4]	terephthalic acid, [2] [mM]
PET substrate: aFilm, 60 °C, pH 4.5	0	0	0	0
PET substrate: aFilm, 60 °C, pH 5.5	0.00214	0	0.0295	0.0433
PET substrate: aFilm, 60 °C, pH 6.5	0.00244	0.00338	0.0361	0.0508
PET substrate: aFilm, 60 °C, pH 7.5	0.00625	0.0101	0.111	0.186
PET substrate: aFilm, 60 °C, pH 8.5	0	0.00697	0.0556	0.0862
PET substrate: aFilm, 60 °C, pH 9.5	0	0.0114	0.133	0.454
PET substrate: aFilm, 70 °C, pH 4.5	0	0	0	0
PET substrate: aFilm, 70 °C, pH 5.5	0	0	0	0
PET substrate: aFilm, 70 °C, pH 6.5	0	0	0.0032	0
PET substrate: aFilm, 70 °C, pH 7.5	0	0.00351	0	0.00319
PET substrate: aFilm, 70 °C, pH 8.5	0	0.00376	0.0109	0.00941
PET substrate: aFilm, 70 °C, pH 9.5	0	0.00877	0.0072	0.03467
PET substrate: cryPow, 60 °C, pH 4.5	0	0	0	0
PET substrate: cryPow, 60 °C, pH 5.5	0	0	0	0.0031
PET substrate: cryPow, 60 °C, pH 6.5	0	0	0.00709	0.00386
PET substrate: cryPow, 60 °C, pH 7.5	0.0022	0	0.0369	0.0408
PET substrate: cryPow, 60 °C, pH 8.5	0	0	0.0198	0.0159
PET substrate: cryPow, 60 °C, pH 9.5	0	0.00389	0.0223	0.0959
PET substrate: cryPow, 70 °C, pH 4.5	0	0	0	0
PET substrate: cryPow, 70 °C, pH 5.5	0	0	0	0
PET substrate: cryPow, 70 °C, pH 6.5	0	0	0	0
PET substrate: cryPow, 70 °C, pH 7.5	0	0	0	0
PET substrate: cryPow, 70 °C, pH 8.5	0	0	0	0
PET substrate: cryPow, 70 °C, pH 9.5	0	0	0	0.0139

SNPYQRGPNPTRSALTADGPFSVATYTVSRLSVSGFGGGVIYYPTGTSLTFGGIAMSPGYTADASSLAWLGRRLASHGFVVLVINTNSRFDGPDSRASQLSAALNYLRTSSPSAVRARLDANRLAVAGHSMGGGGTLRIAEQNPSLKAAVPLTPWHTDKTFNTSVPVLIVGAEADTVAPVSQHAIPFYQNLPSTTPKVYVELCNASHIAPNSNNAAISVYTISWMKLWVDNDTRYRQFLCNVNDPALCDFRTNNRHCQ [LCC-ICCG]
Details	BHET released, [1] [mM]	PET hydrolysis product formed, [3]	PET hydrolysis product formed, [4]	terephthalic acid, [2] [mM]
PET substrate: aFilm, 60 °C, pH 4.5	0	0	0.00176	0.0137
PET substrate: aFilm, 60 °C, pH 5.5	0.00902	0.0182	0.126	0.309
PET substrate: aFilm, 60 °C, pH 6.5	0.0136	0.0377	0.327	0.78
PET substrate: aFilm, 60 °C, pH 7.5	0.0155	0.0795	1.42	3.41
PET substrate: aFilm, 60 °C, pH 8.5	0	0.0461	0.142	0.472
PET substrate: aFilm, 60 °C, pH 9.5	0.039	0.0968	0.885	2.3
PET substrate: aFilm, 70 °C, pH 4.5	0	0	0	0
PET substrate: aFilm, 70 °C, pH 5.5	0.00749	0.0371	0.109	0.25
PET substrate: aFilm, 70 °C, pH 6.5	0	0.0873	0.165	0.362
PET substrate: aFilm, 70 °C, pH 7.5	0.0808	0.226	1.92	2.48
PET substrate: aFilm, 70 °C, pH 8.5	0	0.0682	0.107	0.287
PET substrate: aFilm, 70 °C, pH 9.5	0	0.252	0.901	1.72
PET substrate: cryPow, 60 °C, pH 4.5	0	0	0	0.0129
PET substrate: cryPow, 60 °C, pH 5.5	0.00462	0.0406	0.0652	0.0979
PET substrate: cryPow, 60 °C, pH 6.5	0	0.045	0.09	0.113
PET substrate: cryPow, 60 °C, pH 7.5	0	0.0768	0.184	0.308
PET substrate: cryPow, 60 °C, pH 8.5	0	0.0339	0.0728	0.121
PET substrate: cryPow, 60 °C, pH 9.5	0	0.0379	0.125	0.516
PET substrate: cryPow, 70 °C, pH 4.5	0	0	0	0
PET substrate: cryPow, 70 °C, pH 5.5	0	0.0205	0.031	0.0559
PET substrate: cryPow, 70 °C, pH 6.5	0.0013	0.0349	0.0781	0.0977
PET substrate: cryPow, 70 °C, pH 7.5	0	0.0598	0.2	0.409
PET substrate: cryPow, 70 °C, pH 8.5	0	0.0285	0.0667	0.111
PET substrate: cryPow, 70 °C, pH 9.5	0	0.0357	0.131	0.682

SNPYQRGPNPTRSALTADGPFSVRTYTISRLSVSGFGGGVIYYPTGTSLTFGGIAMSPGYTADASSLAWLGRRLASHGFVVLVINTNSRFDGPDSRASQLSAALNYLRTSSPSAVRARLDANRLAVAGHSMGGGGTLRIAEQNPSLKAAVPLTPWHTDKTFNTSVPVLIVGAEADTVAPVSQHAIPFYQNLPSTTPKVYVELCNASHIAPNSPNAAISVYTISWMKLWVDNDTRYRQFLCNVNDPALCDFRTNNRHCQ [LCC-ICCG RIP]
Details	BHET released, [1] [mM]	PET hydrolysis product formed, [3]	PET hydrolysis product formed, [4]	terephthalic acid, [2] [mM]
PET substrate: aFilm, 60 °C, pH 4.5	0.00297	0	0.029	0.0858
PET substrate: aFilm, 60 °C, pH 5.5	0.00225	0.0147	0.0802	0.202
PET substrate: aFilm, 60 °C, pH 6.5	0	0.0276	0.202	0.423
PET substrate: aFilm, 60 °C, pH 7.5	0.0189	0.0697	0.775	1.96
PET substrate: aFilm, 60 °C, pH 8.5	0.00205	0.0326	0.127	0.346
PET substrate: aFilm, 60 °C, pH 9.5	0.0202	0.0672	0.684	1.27
PET substrate: aFilm, 70 °C, pH 4.5	0	0	0	0.00741
PET substrate: aFilm, 70 °C, pH 5.5	0.00382	0.0525	0.103	0.255
PET substrate: aFilm, 70 °C, pH 6.5	0	0.0606	0.181	0.361
PET substrate: aFilm, 70 °C, pH 7.5	0.0465	0.151	1.26	1.63
PET substrate: aFilm, 70 °C, pH 8.5	0	0.0612	0.1	0.2235
PET substrate: aFilm, 70 °C, pH 9.5	0	0.175	0.65	1.66
PET substrate: cryPow, 60 °C, pH 4.5	0.00464	0.011	0.0235	0.0388
PET substrate: cryPow, 60 °C, pH 5.5	0	0.0235	0.0628	0.0956
PET substrate: cryPow, 60 °C, pH 6.5	0	0.0304	0.082	0.113
PET substrate: cryPow, 60 °C, pH 7.5	0	0.0711	0.113	0.147
PET substrate: cryPow, 60 °C, pH 8.5	0	0.0405	0.0714	0.121
PET substrate: cryPow, 60 °C, pH 9.5	0	0.0143	0.0784	0.307
PET substrate: cryPow, 70 °C, pH 4.5	0	0	0	0.00368
PET substrate: cryPow, 70 °C, pH 5.5	0.00217	0.0166	0.0369	0.057
PET substrate: cryPow, 70 °C, pH 6.5	0	0.0257	0.0809	0.0917
PET substrate: cryPow, 70 °C, pH 7.5	0	0.045	0.162	0.322
PET substrate: cryPow, 70 °C, pH 8.5	0	0.0206	0.0631	0.118
PET substrate: cryPow, 70 °C, pH 9.5	0	0.0257	0.0938	0.4635
